From publication PMC3556364 come the findings set out here.

The target of test [1] is Azotobacter vinelandii ^NifIscA (Azotobacter vinelandii). Briefly: SEC.
The target is the same in test [2]. Description: SEC. This is another data set of the same source. For orientation: In gel filtration, larger molecules generally elute earlier.

Like-named read-outs stand apart in the source and are kept apart here.

Usually stoichiometry N stands for a count of units in the complex or per binding partner. On to “Azotobacter vinelandii ^NifIscA (natural protein)”, for which the stoichiometry N in test [1] and in test [2] was 2 in each case.
